Entries after “also recorded” stand apart in the source; their conditions may differ.
How the values were obtained:
[1] = tested on: N-MYC; test: Western blotting of N-MYC protein level in treated N2a cells; type: cell-based, murine; settings: n = 6; for N-MYC protein level (Western blotting), chronic treatment: 100 ng/mL daily for five days
Protocol: (§1) We assessed protein level and relative phosphorylation by Western blotting as in [31]. Briefly, upon a wash in PBS, we solubilized cells and tumor specimens in lysis buffer (150 mM NaCl, 50 mM HEPES, 0.5% NP40, 1% sodium-deoxycholate). After 1 h under mild agitation, we clarified the lysate by centrifugation for 20 min at 16,000× g. We performed all experimental procedures at 4 °C. We evaluated protein concentrations via Bradford assay (Bio-Rad, Hercules, CA, USA). For Western blotting experiments, we diluted an equal amount of proteins with 0.25% 5× Laemmli buffer. We separated the samples on 10% SDS-PAGE gels and transferred them onto a nitrocellulose membrane (Sigma-Aldrich) at 80 V for 120 min at 4 °C. Primary antibodies were:
Beta-actin (Santa Cruz Biotechnology, Dallas, TX, USA, sc-47778), ALK (Santa Cruz Biotechnology, Dallas, TX, USA, sc-398791), N-myc (Santa Cruz Biotechnology, Dallas, TX, USA, sc-56729), p44/42 MAPK (Erk1/2) (137F5) Rabbit mAb (Cell Signaling Technology, Danvers, MA, USA), Akt (pan) (11E7) Rabbit mAb (Cell Signaling Technology, Danvers, MA, USA), Phospho-Akt (Ser473) (D9E) XP® Rabbit mAb (Cell Signaling Technology, Danvers, MA, USA), S6 Ribosomal Protein (5G10) Rabbit mAb (Cell Signaling Technology, Danvers, MA, USA), and Negr1 (AF5394) Goat polyclonal (R&D system, Minneapolis, MN, USA). Antibodies were applied overnight in blocking buffer (20 mM Tris, pH 7.4, 150 mM NaCl, 0.1% Tween 20, and 5% nonfat dry milk). We detected proteins using the ECL prime detection system (GE Healthcare, Chicago, IL, USA) with the imaging ChemiDoc Touch system (Bio Rad, Hercules, CA, USA). We quantified the optical density of the specific bands with ImageLab 3.0 software (Bio Rad, Hercules, CA, USA).

[2] = tested on: N2a cells; test: MTT assay of N2a cell growth / vitality; type: cell-based, murine; settings: 5 days; for N2a cellular vitality by MTT assay at DIV5: N2a cells 2 × 10^3 cells/cm^2, 3 μM daily, normalized to vehicle (Lorlatinib) or GFP (rNegr1, PepA-1), n = 10; for N2a cellular growth by MTT assay at DIV5: naive N2a cells seeded at 2 × 10^3 cells/cm^2, 100 ng/mL daily, vs. GFP control, n = 10-12
Protocol: N2a (Neuro2a, ATCC CCL-131), HEK293 (ATCC CRL-1573), U87 MG (ATCC® HTB14), SKMEL5 (ATCC® HTB70), MCF7 ATCC® HTB-22, A549 ATCC® CCL-185, and SHSY5Y (ATCC® CRL 2266™) cells were grown in DMEM high glucose (Gibco, Thermo Fisher Scientific, Waltham, MA, USA) with 10% FBS, 1% penicillin/streptomycin, and 1% glutamine in a humidified atmosphere of 5% CO2 at 37 °C. In the soft-agar assays, we added 0.6% soft agar (Gibco, Thermo Fisher Scientific, Waltham, MA, USA) in media to 2 × 10^3 cell/cm^2 N2a cells to obtain a final concentration of 0.4% agar. We cultured the cells onto a 0.6% soft agar layer. N2a and HEK293 cells were transfected with the different constructs for 48 h using Lipofectamine 2000 (Invitrogen, Thermo Fisher Scientific Waltham, MA, USA). Stable N2a clones expressing murine Negr1 were isolated upon Neomycin selection (1 μg/mL).
We performed the 3-(4,5-dimethylthiazol-2-yl)-2,5-diphenyltetrazolium bromide (MTT) assay to appreciate culture vitality. We cultured N2a cells in a 96-well plate at a concentration of 2 × 10^3 cells/cm^2. The treatment condition is indicated in the Results Section 3. At the end of the treatment, we added the MTT solution to the cell medium at a final concentration of 0.25 mg/mL. The incubation lasted 30 min at 37 °C. Next, we removed the medium and collected the formazan precipitates in DMSO (200 μL). We measured the absorbance at 570 nm using a spectrophotometer (Varioskan LUX, Thermofisher, Waltham, MA, USA) as a proxy for cell viability. We expressed relative cell viability fold over the control condition.

[3] = molecular target: T1, ALK (Mus musculus, UniProt P97793); test: Western blotting of ALK protein level in treated N2a cells; type: cell-based, murine; settings: n = 6; for ALK protein level (Western blotting), chronic treatment: 2 × 10^3 cells/cm^2 N2a cells, 100 ng/mL daily for five days, fold over GFP
T1 construct: we evaluated ALK and N-MYC protein expression by Western blotting; endogenous in cells; host or cells: N2a (Neuro2a, ATCC CCL-131)
T1 sequence (P97793 19-1621): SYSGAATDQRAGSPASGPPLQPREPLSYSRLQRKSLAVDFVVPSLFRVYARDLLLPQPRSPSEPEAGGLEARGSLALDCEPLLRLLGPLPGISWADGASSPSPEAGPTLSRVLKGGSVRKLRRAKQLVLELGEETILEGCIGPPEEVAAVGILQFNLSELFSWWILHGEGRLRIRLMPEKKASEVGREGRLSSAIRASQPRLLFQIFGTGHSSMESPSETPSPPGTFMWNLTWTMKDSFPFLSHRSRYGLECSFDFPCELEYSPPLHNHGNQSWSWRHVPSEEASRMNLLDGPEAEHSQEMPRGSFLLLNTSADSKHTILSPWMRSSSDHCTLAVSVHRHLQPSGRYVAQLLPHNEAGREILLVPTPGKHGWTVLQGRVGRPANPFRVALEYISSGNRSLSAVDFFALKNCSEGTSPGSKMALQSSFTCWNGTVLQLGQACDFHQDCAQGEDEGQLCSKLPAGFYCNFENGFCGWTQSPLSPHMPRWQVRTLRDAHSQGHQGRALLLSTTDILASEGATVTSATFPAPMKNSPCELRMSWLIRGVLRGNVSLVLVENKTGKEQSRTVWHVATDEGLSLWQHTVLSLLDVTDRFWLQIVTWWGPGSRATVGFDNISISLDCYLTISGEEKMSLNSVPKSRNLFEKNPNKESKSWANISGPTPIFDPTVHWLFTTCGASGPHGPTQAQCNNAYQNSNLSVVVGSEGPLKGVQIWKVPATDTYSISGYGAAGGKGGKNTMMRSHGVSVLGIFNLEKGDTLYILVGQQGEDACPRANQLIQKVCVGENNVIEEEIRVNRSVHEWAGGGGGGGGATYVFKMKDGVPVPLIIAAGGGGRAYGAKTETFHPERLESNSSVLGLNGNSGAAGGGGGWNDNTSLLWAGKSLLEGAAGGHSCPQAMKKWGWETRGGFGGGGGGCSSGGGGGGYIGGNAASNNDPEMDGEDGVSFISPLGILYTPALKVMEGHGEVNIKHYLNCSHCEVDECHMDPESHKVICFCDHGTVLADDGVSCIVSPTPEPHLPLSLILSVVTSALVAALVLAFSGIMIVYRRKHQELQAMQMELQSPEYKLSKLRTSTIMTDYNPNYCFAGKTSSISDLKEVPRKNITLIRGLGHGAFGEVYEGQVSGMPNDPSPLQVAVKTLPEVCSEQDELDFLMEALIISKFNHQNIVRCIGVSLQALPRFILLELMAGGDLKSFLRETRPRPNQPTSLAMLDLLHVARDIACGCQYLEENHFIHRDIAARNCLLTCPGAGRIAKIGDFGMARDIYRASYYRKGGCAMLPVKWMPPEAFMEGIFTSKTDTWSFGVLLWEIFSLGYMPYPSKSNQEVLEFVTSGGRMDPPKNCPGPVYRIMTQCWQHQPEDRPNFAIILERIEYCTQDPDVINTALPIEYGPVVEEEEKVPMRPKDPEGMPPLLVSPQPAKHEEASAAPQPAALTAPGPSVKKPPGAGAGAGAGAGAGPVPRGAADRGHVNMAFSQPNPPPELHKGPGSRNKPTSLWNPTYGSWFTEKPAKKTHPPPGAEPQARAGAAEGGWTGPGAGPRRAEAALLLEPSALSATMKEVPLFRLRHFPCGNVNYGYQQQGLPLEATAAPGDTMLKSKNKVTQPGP
Protocol: as §1
Antibodies were applied overnight in blocking buffer (20 mM Tris, pH 7.4, 150 mM NaCl, 0.1% Tween 20, and 5% nonfat dry milk). We detected proteins using the ECL prime detection system (GE Healthcare, Chicago, IL, USA) with the imaging ChemiDoc Touch system (Bio Rad, Hercules, CA, USA). We quantified the optical density of the specific bands with ImageLab 3.0 software (Bio Rad, Hercules, CA, USA).

[4] = tested on: N2a cells; test: Growth of subcutaneous N2a tumors in nude mice; type: in vivo; settings: 1 million N2a cells s.c. in CD1 nude mice; 2 ug in situ every second day from 100 mm^3 tumor volume; vs. GFP; n = 9 (PepA), n = 5 (PepA-1)
Source text: All procedures involving animals were approved by Institutional and National Agencies (authorization 559/2016-PR).

[5] = tested on: ALK mRNA; test: RT-qPCR of ALK mRNA level in treated N2a cells; type: cell-based, murine; settings: 5 × 10^3 cells/cm^2 N2a cells, 100 ng/mL, 10 min to 6 h; normalized over housekeeping genes; n = 6
Source text: (§2) Total RNA was isolated from cell cultures using a Single Cell RNA Purification Kit (Norgen Thorold, ON, Canada) according to manufacturer’s instruction. After extraction, the RNA concentration was quantified with a NanoDrop 2000C spectrophotometer (Thermo Fisher Scientific, Waltham, MA, USA). After DNAse treatment (Thermo Fisher Scientific, Waltham, MA, USA, according to manufacturer’s protocol), complementary DNA (cDNA) was generated using qRT SuperMix (Bimake). The cDNAs were used for quantitative PCR (qPCR) using iTaq Universal SYBR® Green Supermix and CFX96 RealTime System (BioRad, Hercules, CA, USA) for 40 cycles. We used two independent couples of primers to assess mRNA expression levels (Table 3). All samples were measured as technical duplicates. We calculated mRNA expression levels as the average between the two couple of primers, normalized for the mathematical mean of the relative abundance of actinB and GAPDH (housekeeping genes). Data shown were produced using Bio-Rad CFX Manager 3.1 software and analyzed according to the ddCt method.

[6] = tested on: N-MYC mRNA; test: RT-qPCR of N-MYC mRNA level in treated N2a cells; type: cell-based, murine; settings: 5 × 10^3 cells/cm^2 N2a cells, 100 ng/mL, 10 min to 6 h; normalized over housekeeping genes; n = 6
Source text: as §2

[7] = 2 × 10^3 cells/cm^2 N2a cells, fold over GFP
[8] = 5 × 10^3 cells/cm^2 N2a cells, 100 ng/mL, 10 min to 6 h, normalized over actin, vs. GFP

Row | ALK protein level (Western blotting), chronic treatment [3] | ALK protein level (Western blotting), acute treatment [3, 8] | Molecule | N-MYC protein level (Western blotting), chronic treatment at 3 μM ([1]; 2 × 10^3 cells/cm^2 N2a cells, 3 μM daily for five days, fold over GFP) | N2a cellular vitality by MTT assay at DIV5 [2] | N-MYC protein level (Western blotting), chronic treatment [1, 7] | N2a cellular growth by MTT assay at DIV5 [2] | Tumor growth (tumor volume, fold over day 1) [4] | N-MYC protein level (Western blotting), acute treatment [1, 8] | ALK mRNA level (RT-qPCR) [5] | N-MYC mRNA level (RT-qPCR) [6]
1 | – | – | C[C@H]1Oc2cc(cnc2N)-c2c(nn(C)c2C#N)CN(C)C(=O)c2ccc(F)cc21 [Lorlatinib, reference compound] | strongly reduced | impaired N2A growth to a similar extent | – | – | – | – | – | –
2 | robust reduction | – | VDFPWAAVDNMLVRKGDTAVLRCYLEDGASKGAWLNRSSIIFAGGDKWSVDPRVSISTLNKRDYSLQIQNVDVTDDGPYTCSVQTQHTPRTMQVHL [PepA, Negr1 first Ig domain, strep-FLAG tagged recombinant protein purified from HEK293 cells] | – | – | robust reduction | significantly reduced N2a proliferation | robust growth reduction | – | – | –
3 | did not overtly affect | reduction | rNegr1: Recombinant Strep-FLAG Negr1 (murine) expressed in and purified from HEK293 cells (protein, UniProt Q80Z24 32-318, looked up, Strep-FLAG tag, Recombinant Strep-FLAG Negr1 (murine) expressed in and purified from HEK293 cells) Neuronal growth regulator 1: VDFPWAAVDNMLVRKGDTAVLRCYLEDGASKGAWLNRSSIIFAGGDKWSVDPRVSISTLNKRDYSLQIQNVDVTDDGPYTCSVQTQHTPRTMQVHLTVQVPPKIYDISNDMTINEGTNVTLTCLATGKPEPVISWRHISPSAKPFENGQYLDIYGITRDQAGEYECSAENDVSFPDVKKVRVIVNFAPTIQEIKSGTVTPGRSGLIRCEGAGVPPPAFEWYKGEKRLFNGQQGIIIQNFSTRSILTVTNVTQEHFGNYTCVAANKLGTTNASLPLNPPSTAQYGITG | – | impaired N2A growth to a similar extent | did not overtly affect | significantly reduced N2a growth; also recorded: significantly reduced N2a proliferation | – | reduction | did not notice an overt impact | light but significant effect
